Data from patent US20110318377.

Key:
[1] = tested on: full-length synthetic Tat protein (72 amino acids), unmodified
[2] = tested on: histones purified from calf thymus

## recombinant G9a (Upstate)
[1]
  in vitro methylation with radiolabeled SAM, autoradiography: Incubation with the lysine methyltransferase G9a did not result in methylation of Tat
[2]
  in vitro methylation with radiolabeled SAM, autoradiography: led to the successful methylation of histones as expected
